Test results taken from the Human Domainome abundance scans (Beltran et al. 2025).
± gives the uncertainty stated by the source.

B1: Bromodomain adjacent to zinc finger domain protein 2B, residues 1927 to 1982; numbered along this chain, Q9UIF8 (parent)
chain: KSIMKVYCQICRKGDNEELLLLCDGCDKGCHTYCHRPKITTIPDGDWFCPACIAKA

Variants of: B1
Test: abundance fitness (aPCA) (normalised: wild type 0, dead -1); higher = more abundant; growth selection in yeast, the domain comes from the species named
Details: Homo sapiens

Which abundance fitness does the source give for KSIMKVYCQICRKGDNEELLDLCDGCDKGCHTYCHRPKITTIPDGDWFCPACIAKA [L21D] here?
Its abundance fitness is -0.346 ± 0.12.

Which abundance fitness does the source give for KSIMKVYCQICRKGDNEELLALCDGCDKGCHTYCHRPKITTIPDGDWFCPACIAKA [L21A] here?
Its abundance fitness is -0.117 ± 0.1.

With KSIMKVYCQICRKGDNEELQLLCDGCDKGCHTYCHRPKITTIPDGDWFCPACIAKA [L20Q] as the variant, how does the abundance fitness read?
Its abundance fitness is -0.34 ± 0.14.

For KSIMKVYCQICRKGDNEELSLLCDGCDKGCHTYCHRPKITTIPDGDWFCPACIAKA [L20S], which abundance fitness is on record?
The abundance fitness was -0.308 ± 0.092.

Which abundance fitness does the source give for KSIMKVYCQICRKGDNEELALLCDGCDKGCHTYCHRPKITTIPDGDWFCPACIAKA [L20A] here?
The abundance fitness was -0.227 ± 0.076.

Which abundance fitness does the source give for KSIMKVYCQICRKGDNEELWLLCDGCDKGCHTYCHRPKITTIPDGDWFCPACIAKA [L20W] here?
Its abundance fitness is -0.354 ± 0.14.

Which abundance fitness does the source give for KSIMKVYCQICRKGDNEELKLLCDGCDKGCHTYCHRPKITTIPDGDWFCPACIAKA [L20K] here?
The abundance fitness was -0.138 ± 0.14.

For KSIMKVYCQICRKGDNEELDLLCDGCDKGCHTYCHRPKITTIPDGDWFCPACIAKA [L20D], which abundance fitness is on record?
The abundance fitness was -0.566 ± 0.14.

For KSIMKVYCQICRKGDNEELGLLCDGCDKGCHTYCHRPKITTIPDGDWFCPACIAKA [L20G], which abundance fitness is on record?
Its abundance fitness is -0.509 ± 0.11.

Which abundance fitness does the source give for KSIMKVYCQICRKGDNEELVLLCDGCDKGCHTYCHRPKITTIPDGDWFCPACIAKA [L20V] here?
Its abundance fitness is -0.069 ± 0.079.

For KSIMKVYCQICRKGDNEELMLLCDGCDKGCHTYCHRPKITTIPDGDWFCPACIAKA [L20M], which abundance fitness is on record?
The abundance fitness was -0.009 ± 0.13.

For KSIMKVYCQICRKGDNEELFLLCDGCDKGCHTYCHRPKITTIPDGDWFCPACIAKA [L20F], which abundance fitness is on record?
Its abundance fitness is 0.058 ± 0.13.

Which abundance fitness does the source give for KSIMKVYCQICRKGDNEELNLLCDGCDKGCHTYCHRPKITTIPDGDWFCPACIAKA [L20N] here?
Its abundance fitness is -0.337 ± 0.12.

Which abundance fitness does the source give for KSIMKVYCQICRKGDNEELTLLCDGCDKGCHTYCHRPKITTIPDGDWFCPACIAKA [L20T] here?
The abundance fitness was -0.094 ± 0.096.

With KSIMKVYCQICRKGDNEELELLCDGCDKGCHTYCHRPKITTIPDGDWFCPACIAKA [L20E] as the variant, how does the abundance fitness read?
The abundance fitness was -0.34 ± 0.11.

For KSIMKVYCQICRKGDNEELCLLCDGCDKGCHTYCHRPKITTIPDGDWFCPACIAKA [L20C], which abundance fitness is on record?
The abundance fitness was -0.011 ± 0.14.

For KSIMKVYCQICRKGDNEELRLLCDGCDKGCHTYCHRPKITTIPDGDWFCPACIAKA [L20R], which abundance fitness is on record?
Its abundance fitness is -0.318 ± 0.093.

For KSIMKVYCQICRKGDNEELPLLCDGCDKGCHTYCHRPKITTIPDGDWFCPACIAKA [L20P], which abundance fitness is on record?
Its abundance fitness is -0.421 ± 0.094.

For KSIMKVYCQICRKGDNHELLLLCDGCDKGCHTYCHRPKITTIPDGDWFCPACIAKA [E17H], which abundance fitness is on record?
Its abundance fitness is -0.34 ± 0.24.

With KSIMKVYCQICRKGDNNELLLLCDGCDKGCHTYCHRPKITTIPDGDWFCPACIAKA [E17N] as the variant, how does the abundance fitness read?
The abundance fitness was -0.139 ± 0.21.

For KSIMKVYCQICRKGDNMELLLLCDGCDKGCHTYCHRPKITTIPDGDWFCPACIAKA [E17M], which abundance fitness is on record?
The abundance fitness was -0.052 ± 0.14.

With KSIMKVYCQICRKGDNIELLLLCDGCDKGCHTYCHRPKITTIPDGDWFCPACIAKA [E17I] as the variant, how does the abundance fitness read?
Its abundance fitness is -0.127 ± 0.24.

With KSIMKVYCQICRKGDNLELLLLCDGCDKGCHTYCHRPKITTIPDGDWFCPACIAKA [E17L] as the variant, how does the abundance fitness read?
The abundance fitness was -0.008 ± 0.098.

With KSIMKVYCQICRKGDNFELLLLCDGCDKGCHTYCHRPKITTIPDGDWFCPACIAKA [E17F] as the variant, how does the abundance fitness read?
Its abundance fitness is -0.363 ± 0.35.

Which abundance fitness does the source give for KSIMKVYCQICRKGDNCELLLLCDGCDKGCHTYCHRPKITTIPDGDWFCPACIAKA [E17C] here?
Its abundance fitness is 0.005 ± 0.14.

With KSIMKVYCQICRKGDNWELLLLCDGCDKGCHTYCHRPKITTIPDGDWFCPACIAKA [E17W] as the variant, how does the abundance fitness read?
Its abundance fitness is -0.092 ± 0.093.

For KSIMKVYCQICRKGDNKELLLLCDGCDKGCHTYCHRPKITTIPDGDWFCPACIAKA [E17K], which abundance fitness is on record?
Its abundance fitness is 0.172 ± 0.18.

For KSIMKVYCQICRKGDNGELLLLCDGCDKGCHTYCHRPKITTIPDGDWFCPACIAKA [E17G], which abundance fitness is on record?
The abundance fitness was 0.022 ± 0.076.

With KSIMKVYCQICRKGDNQELLLLCDGCDKGCHTYCHRPKITTIPDGDWFCPACIAKA [E17Q] as the variant, how does the abundance fitness read?
Its abundance fitness is 0.103 ± 0.16.

Which abundance fitness does the source give for KSIMKVYCQICRKGDNYELLLLCDGCDKGCHTYCHRPKITTIPDGDWFCPACIAKA [E17Y] here?
The abundance fitness was -0.409 ± 0.26.

With KSIMKVYCQICRKGDNPELLLLCDGCDKGCHTYCHRPKITTIPDGDWFCPACIAKA [E17P] as the variant, how does the abundance fitness read?
The abundance fitness was 0.085 ± 0.2.

For KSIMKVYCQICRKGDNDELLLLCDGCDKGCHTYCHRPKITTIPDGDWFCPACIAKA [E17D], which abundance fitness is on record?
Its abundance fitness is -0.038 ± 0.2.

For KSIMKVYCQICRKGDNSELLLLCDGCDKGCHTYCHRPKITTIPDGDWFCPACIAKA [E17S], which abundance fitness is on record?
Its abundance fitness is -0.015 ± 0.12.

With KSIMKVYCQICRKGDNTELLLLCDGCDKGCHTYCHRPKITTIPDGDWFCPACIAKA [E17T] as the variant, how does the abundance fitness read?
Its abundance fitness is -0.069 ± 0.19.

For KSIMKVYCQICRKGDNRELLLLCDGCDKGCHTYCHRPKITTIPDGDWFCPACIAKA [E17R], which abundance fitness is on record?
The abundance fitness was 0.072 ± 0.078.

For KSIMKVYCQICRKGRNEELLLLCDGCDKGCHTYCHRPKITTIPDGDWFCPACIAKA [D15R], which abundance fitness is on record?
The abundance fitness was -0.263 ± 0.069.

Which abundance fitness does the source give for KSIMKVYCQICRKGTNEELLLLCDGCDKGCHTYCHRPKITTIPDGDWFCPACIAKA [D15T] here?
The abundance fitness was -0.22 ± 0.14.

With KSIMKVYCQICRKGLNEELLLLCDGCDKGCHTYCHRPKITTIPDGDWFCPACIAKA [D15L] as the variant, how does the abundance fitness read?
The abundance fitness was -0.362 ± 0.12.

For KSIMKVYCQICRKGNNEELLLLCDGCDKGCHTYCHRPKITTIPDGDWFCPACIAKA [D15N], which abundance fitness is on record?
The abundance fitness was -0.008 ± 0.17.

With KSIMKVYCQICRKGPNEELLLLCDGCDKGCHTYCHRPKITTIPDGDWFCPACIAKA [D15P] as the variant, how does the abundance fitness read?
Its abundance fitness is -0.293 ± 0.12.

For KSIMKVYCQICRKGVNEELLLLCDGCDKGCHTYCHRPKITTIPDGDWFCPACIAKA [D15V], which abundance fitness is on record?
Its abundance fitness is -0.06 ± 0.094.

For KSIMKVYCQICRKGYNEELLLLCDGCDKGCHTYCHRPKITTIPDGDWFCPACIAKA [D15Y], which abundance fitness is on record?
The abundance fitness was -0.452 ± 0.17.

With KSIMKVYCQICRKGWNEELLLLCDGCDKGCHTYCHRPKITTIPDGDWFCPACIAKA [D15W] as the variant, how does the abundance fitness read?
Its abundance fitness is -0.279 ± 0.12.

Which abundance fitness does the source give for KSIMKVYCQICRKGMNEELLLLCDGCDKGCHTYCHRPKITTIPDGDWFCPACIAKA [D15M] here?
Its abundance fitness is -0.406 ± 0.21.

With KSIMKVYCQICRKGQNEELLLLCDGCDKGCHTYCHRPKITTIPDGDWFCPACIAKA [D15Q] as the variant, how does the abundance fitness read?
The abundance fitness was -0.238 ± 0.16.

With KSIMKVYCQICRKGDHEELLLLCDGCDKGCHTYCHRPKITTIPDGDWFCPACIAKA [N16H] as the variant, how does the abundance fitness read?
Its abundance fitness is 0 ± 0.14.

For KSIMKVYCQICRKGDEEELLLLCDGCDKGCHTYCHRPKITTIPDGDWFCPACIAKA [N16E], which abundance fitness is on record?
Its abundance fitness is 0.018 ± 0.14.
